Data on 1 substance can be found in publication PMC11272584 (Nature Metabolism, 2024).

For one assay, the target named is T1, GIPR M67R (human) (UniProt P48546).
T1 sequence: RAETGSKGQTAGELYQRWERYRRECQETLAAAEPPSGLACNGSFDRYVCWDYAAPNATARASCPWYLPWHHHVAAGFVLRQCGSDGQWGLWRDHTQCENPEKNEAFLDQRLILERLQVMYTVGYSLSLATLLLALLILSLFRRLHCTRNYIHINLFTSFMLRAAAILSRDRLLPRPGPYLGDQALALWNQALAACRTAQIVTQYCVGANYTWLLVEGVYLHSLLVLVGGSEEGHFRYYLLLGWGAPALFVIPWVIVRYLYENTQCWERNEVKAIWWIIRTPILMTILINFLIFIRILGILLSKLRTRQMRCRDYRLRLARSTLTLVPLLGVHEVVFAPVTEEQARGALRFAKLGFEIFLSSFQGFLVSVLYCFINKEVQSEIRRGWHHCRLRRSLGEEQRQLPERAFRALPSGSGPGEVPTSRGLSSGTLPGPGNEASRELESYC

In another assay the target is T2, GIPR W90Lfs* (human) (UniProt P48546).
T2 sequence (P48546 whole entry, looked up): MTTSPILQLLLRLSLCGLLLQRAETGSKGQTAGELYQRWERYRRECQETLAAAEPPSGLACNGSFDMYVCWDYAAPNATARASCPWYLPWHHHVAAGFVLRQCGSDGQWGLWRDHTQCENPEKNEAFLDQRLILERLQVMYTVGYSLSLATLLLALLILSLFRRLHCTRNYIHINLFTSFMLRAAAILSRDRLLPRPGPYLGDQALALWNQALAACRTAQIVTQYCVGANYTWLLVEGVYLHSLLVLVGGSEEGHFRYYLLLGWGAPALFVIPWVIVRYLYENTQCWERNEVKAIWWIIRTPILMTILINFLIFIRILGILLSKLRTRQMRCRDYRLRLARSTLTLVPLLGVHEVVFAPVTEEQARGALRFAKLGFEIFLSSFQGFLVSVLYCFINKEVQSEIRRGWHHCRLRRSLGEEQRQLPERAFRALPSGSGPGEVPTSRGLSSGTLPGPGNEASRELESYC

For “β-arrestin 2 (Rluc8-Arrestin-3-Sp1) (from UniProt P32121 1-409) (natural protein)”, the β-arrestin 2 recruitment (BRET) on stimulation with GIP(1-42): logEC50 (Arrestin) (log M (inferred)) was -8.16 in the assay with GIPR M67R (human) and -10.8 in the assay with GIPR W90Lfs* (human).
